These results are taken from patent US8624002B2, “Prostaglandin E2 binding proteins and uses thereof” (AbbVie, Inc., priority 2008, dated 2014).

The EC50 is the concentration at which the effect is half-maximal. Low readings indicate a more potent agent, high ones a less potent agent.

The test can be described thus: Biotin-PGE2 ELISA (PGE2-biotinamide binding to captured IgG). The protocol:
Enzyme linked immunosorbent assays to screen for antibodies that bind prostaglandin E2 were performed according to at least one of the two following methods.
ELISA plates (Costar 3369, Corning, N.Y.) were coated with 50 μl of anti-host Fc IgG (Sigma, St. Louis, Mo.) at 2 μg/ml in PBS (Invitrogen Carlsbad, Calif.). Following an overnight incubation at 4° C., washed with PBS and the plate was blocked with 200 μl Superblock (Pierce #37535, Rockford, Ill.). The IgG containing samples were diluted to 1 μg/ml in Assay Buffer (10% Superblock in PBS containing 0.05% Surfactamps (Pierce #37535, Rockford, Ill.) and 50 μl/well added to each well and incubated for 1 hour at room temperature. Plates were washed four times with Tween-Tris Buffered Solution (TTBS). […] The titration curve samples were added to each IgG sample at 50 μl/well and incubated for 1 hour at room temperature. The plates were washed as previously described and 50 μl of 1:5000 dilution of streptavidin polyhrp40 (Fitzgerald Industries, Concord, Mass.) in Assay Buffer was added to each well and incubated for 45 minutes at room temperature. A final wash step was performed and the plates were developed using a single step TMB system (Sigma #T8665, St. Louis, Mo.) and 100 μl/well 2N H2SO4. Plates were read at 450 nm on a Molecular Devices Spectramax plate reader (Sunnyvale, Calif.). EC50 was determined using GraphPad Prism 5 (GraphPad Software, La Jolla, Calif.).
A general note: ELISA stands for enzyme-linked immunosorbent assay.

B1: 2B5-8.0: recombinant anti-PGE2 antibody from solved 2B5 sequence; VH SEQ ID NO 42, VL SEQ ID NO 43 (antibody, V domains shown)
VH: QVQLQQSGPELVRPGSSVKISCKASGYTFTKYWLGWVKQRPGHGLEWIGDIYPGYDYTHYNEKFKDKATLTVDTSSSTAYMQLSSLTSEDSAIYYCARSDGSSTYWGQGTLVTVSA
VL: DVLMTQTPLSLPVSLGDQASISCTSSQNIVHSNGNTYLEWYLQRPGQSPKLLIYKVSNRFSGVPDRFSGSGSGTVFTLKISRVEAEDLGVYYCFQVSHVPYTFGGGTKLEIKR
On to B1, for which the EC50 is 1.03 nM and the “ability to bind PGE2 in ELISA” value was “potently bound to PGE2”.
